According to paper PMC3044691:
Like-named read-outs stand apart in the source and are kept apart here.

Assays:
[1] = molecular target: integrin α4β7 (human (endogenous in primary CD4+ T cells)) (UniProt P13612); test: flow cytometry on cells; α4β7-reactivity: biotinylated gp120 on retinoic acid-cultured primary CD4+ T cells with CD4 masked by unlabeled mAb Leu3A (α4 mAb HP2/1 as specificity control); HBS with 100 µM CaCl2 and 1 mM MnCl2, on ice; Neutravidin PE; MFI of the CD45RO+/CCR5+ gate; steady state
[2] = molecular target: integrin α4β7, P13612;P26010; test: steady-state binding assay on primary α4β7+/CD4+ T-cells (flow cytometry, MFI); settings: read off a plot
[3] = molecular target: integrin α4β7 (human (endogenous in primary CD4+ T cells)) (UniProt P13612); test: flow cytometry on cells; α4β7-reactivity: biotinylated gp120 on retinoic acid-cultured primary CD4+ T cells with CD4 masked by unlabeled mAb Leu3A (α4 mAb HP2/1 as specificity control); HBS with 100 µM CaCl2 and 1 mM MnCl2, on ice; Neutravidin PE; MFI of the CD45RO+/CCR5+ gate; steady state; remark: listed apart in the source
[4] = first point, plotted at x = 0 µg gp120, parent: est. 20

Question: Which fold bound to α4β7 over bound to CD4 [1] does the source give for “Z205F.ENV1.1 0Mfounder gp120 (natural protein)” here?
Answer: The fold bound to α4β7 over bound to CD4 was 37 fold.

Question: And the fold α4β7-reactivity over the 0-month escape gp120 [1]?
Answer: Its fold α4β7-reactivity over the 0-month escape gp120 is 8 fold.

Question: And the fold α4β7-reactivity over the 8- and 38-month escape gp120s [1]?
Answer: Its fold α4β7-reactivity over the 8- and 38-month escape gp120s is > 17 fold.

Question: “QA203M41 chimeric gp120 (V1/V2 of QA203M41 in a Q23 backbone) N66Q; N67Q” was tested. Which response [2, 4] did it give?
Answer: The response was 50 MFI.

Question: And the response ([2]; gp120 2 µg, parent: est. 30)?
Answer: The response was 180 MFI.

Question: And the response ([2]; gp120 4 µg, parent: est. 50)?
Answer: The response was 280 MFI.

Question: 93MW959 w.t. gp120 (subtype C) N139Q was tested. Which response ([2]; parent: est. 300) did it give?
Answer: The response was 500 MFI.

Question: What does the source list for “AN1 w.t. gp120 expressed in CHO lec1 cells”?
Answer: fold α4β7-reactivity over CHO S AN1 w.t. gp120 [3]: > 100 fold; fold α4β7-reactivity over CHO S AN1 w.t. gp120 [1]: 100 fold

Question: With 92Ug037N355Q gp120 (natural protein) as the substance, how does the fold increase in α4β7-reactivity over w.t. 92Ug037 [1] read?
Answer: The fold increase in α4β7-reactivity over w.t. 92Ug037 was 27 fold.

Question: Which response ([2]; parent: est. 27) does the source give for 92Ug037 w.t. gp120 (subtype A) N137Q here?
Answer: The response was 160 MFI.

Question: With “92Ug037 w.t. gp120 (subtype A) N187Q; N188Q” as the substance, how does the response ([2]; parent: est. 27) read?
Answer: The response was 540 MFI.

Question: 92Ug037N385Q gp120 (natural protein) was tested. Which fold increase in α4β7-reactivity over w.t. 92Ug037 [1] did it give?
Answer: Its fold increase in α4β7-reactivity over w.t. 92Ug037 is 8 fold.

Question: With 93MW959 w.t. gp120 (subtype C) N145Q as the substance, how does the response ([2]; parent: est. 300) read?
Answer: Its response is 550 MFI.

Question: Which fold increase in α4β7-reactivity over AN1 w.t. expressed in CHO-S cells [1] does the source give for AN1 NN140/143QQ,N204Q gp120 here?
Answer: Its fold increase in α4β7-reactivity over AN1 w.t. expressed in CHO-S cells is 96 fold.

Question: Which fold increase in α4β7-reactivity over AN1 w.t. expressed in CHO-S cells [1] does the source give for AN1 N204Q gp120 here?
Answer: The fold increase in α4β7-reactivity over AN1 w.t. expressed in CHO-S cells was 23 fold.

Question: What does the source list for “QA203M41 chimeric gp120 (V1/V2 of QA203M41 in a Q23 backbone) N22Q; N25Q”?
Answer: response [2, 4]: 300 MFI; response ([2]; gp120 0.5 µg, parent: est. 20): 270 MFI; response ([2]; gp120 1 µg, parent: est. 25): 580 MFI; response ([2]; gp120 1 µg, parent: est. 45): 600 MFI; response ([2]; gp120 2 µg, parent: est. 30): 1400 MFI; response ([2]; gp120 2 µg, parent: est. 110): 1300 MFI; response ([2]; gp120 4 µg, parent: est. 50): 1700 MFI; response ([2]; gp120 4 µg, parent: est. 230): 2000 MFI

Question: For AN1 NN140/143QQ gp120, which fold increase in α4β7-reactivity over AN1 w.t. expressed in CHO-S cells [1] is on record?
Answer: The fold increase in α4β7-reactivity over AN1 w.t. expressed in CHO-S cells was 25 fold.

Question: 92Ug037N144Q gp120 (natural protein) was tested. Which fold increase in α4β7-reactivity over w.t. 92Ug037 [1] did it give?
Answer: The fold increase in α4β7-reactivity over w.t. 92Ug037 was 20 fold.

Question: Which response ([2]; parent: est. 27) does the source give for 92Ug037 w.t. gp120 (subtype A) N133Q here?
Answer: The response was 72 MFI.

Question: Which results are given for “QA203M41 chimeric gp120 (V1/V2 of QA203M41 in a Q23 backbone) N22Q; N25Q; N66Q; N67Q”?
Answer: response [2, 4]: 200 MFI; response ([2]; gp120 1 µg, parent: est. 25): 410 MFI; response ([2]; gp120 2 µg, parent: est. 30): 750 MFI; response ([2]; gp120 4 µg, parent: est. 50): 1300 MFI
